Columns and labels:
[1] = molecular target: SARS-CoV spike protein, recombinant soluble ectodomain trimer (SARS-CoV) (UniProt P59594); experiment: SEC
[2] = molecular target: MERS-CoV spike protein, recombinant soluble ectodomain trimer (MERS-CoV) (UniProt K9N5Q8); experiment: SEC

Substance: SARS-CoV spike protein, recombinant soluble ectodomain trimer (from UniProt P59594 14-1195) (domain or fragment)
- stoichiometry N [1]: 3

Substance: MERS-CoV spike protein, recombinant soluble ectodomain trimer (from UniProt K9N5Q8 18-1296) (domain or fragment)
- stoichiometry N [2]: 3
